We go through one molecule from paper PMC3021135.

For orientation: Kd means the free concentration of one partner at which half of the binding sites on the other are occupied at equilibrium, for simple one-to-one binding. Low readings indicate higher affinity, high ones lower affinity.

This series deals with hAGT C145S (O6-alkylguanine-DNA alkyltransferase, inactive mutant) (human, UniProt P16455 1-207, C145S). Kind of series: EMSA. (In general: In EMSA bound probe runs differently from free probe, usually more slowly.)
Sequence of hAGT C145S (O6-alkylguanine-DNA alkyltransferase, inactive mutant) (P16455 whole entry C145S): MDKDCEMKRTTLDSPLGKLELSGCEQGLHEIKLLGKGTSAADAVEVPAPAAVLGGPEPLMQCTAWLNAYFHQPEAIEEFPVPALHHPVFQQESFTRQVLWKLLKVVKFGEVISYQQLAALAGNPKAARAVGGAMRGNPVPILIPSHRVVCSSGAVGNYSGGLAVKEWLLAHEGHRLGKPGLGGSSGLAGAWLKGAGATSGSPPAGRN

B1: Control (non-cross-linked duplex) (dsDNA)
DNA 1: CGATGTCATCG
DNA 2: CGATGACATCG
In turn, B1 registered a Kd of 8.36 ± 1.11 µM.
